Two substances from PMC12658067 can be followed below.

Assay [1] concerns the target C-tail deletion mutant of T7 gp4A' with 17 C-terminal amino acid residues deleted (gp4A' ΔCt) (bacteriophage T7) (UniProt P03692).
For assay [2] the target is unchanged. The source holds these as a separate data set.
The target of assay [3] is M64L mutant of T7 helicase gp4 (T7 gp4A') (bacteriophage T7) (UniProt P03692).

Substance “Exonuclease deficient mutant of T7 gp5 DNA polymerase (D5A, E7A) complexed with E. coli thioredoxin (from UniProt P00581 1-704; P0AA25 1-109)” came in with a fork regression during stalling under torsion (angular optical trap), ΔCt exo- replisome, mean fork position over a minute in assay [1] of 340 bp.

With “Wild-type T7 gp5 DNA polymerase complexed with E. coli thioredoxin (from UniProt P00581 1-704; P0AA25 1-109)”, the fork regression during stalling under torsion (angular optical trap), ΔCt replisome, mean fork position over a minute in assay [2] worked out at 240 bp. In addition, the fork regression during stalling under torsion (angular optical trap), WT replisome, mean fork position over a minute in assay [3] came to 80 bp.
